# Where no end group is shown, it is not given here.
# T1: Arc N-lobe (Arc-NL, Arc 207-277) (human, UniProt Q7LC44 207-277)
# T1 construct: Activity-regulated cytoskeleton-associated protein (Arc), N-lobe, residues 207-277; identical for human, rat and mouse Arc-NL; construct His6-MBP-TEV-NL in pETMBP_1a; 8.9 kDa as printed; also called human Arc N-lobe; source: E. coli BL21(DE3), purified (Ni-NTA, tag cleavage, reverse Ni-NTA, SEC); not shown: His6, N-terminal, cleaved; MBP, N-terminal, cleaved
# T1 sequence (looked up): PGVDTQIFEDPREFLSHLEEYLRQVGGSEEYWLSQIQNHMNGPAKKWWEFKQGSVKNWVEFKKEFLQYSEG
# B1: FITC-labelled, TAT-tagged TARPγ2 peptide (forward peptide P1) (peptide)
# peptide: YGRKKRRQRRRGGRIPSYRYR
# modifications: also: FITC label, position not given here
# notes: stretch of the transmembrane AMPAR regulatory protein γ2 (TARPγ2, stargazin); the split into TAT, linker and TARPγ2 stretch is mine; also called TARPγ2-derived peptide; source: synthetic peptide, bought: GenScript Biotech
# B2: full-length rat Arc with a poly-Ala mutation in residues 113-119 (rArcFL-7A) (natural protein, UniProt Q63053 1-396, looked up)
# chain: MELDHMTTGGLHAYPAPRGGPAAKPNVILQIGKCRAEMLEHVRRTHRHLLTEVSKQVERELKGLHRSVGKLENNLDGYVPTGDSQRWKKSIKACLCRCQETIANLERWVKREAAAAAAAFYRLERWADRLESMGGKYPVGSEPARHTVSVGVGGPEPYCQEADGYDYTVSPYAITPPPAAGELPEQESVGAQQYQSWVPGEDGQPSPGVDTQIFEDPREFLSHLEEYLRQVGGSEEYWLSQIQNHMNGPAKKWWEFKQGSVKNWVEFKKEFLQYSEGTLSREAIQRELDLPQKQGEPLDQFLWRKRDLYQTLYVDAEEEEIIQYVVGTLQPKFKRFLRHPLPKTLEQLIQRGMEVQDGLEQAAEPSVTPLPTEDETEALTPALTSESVASDRTQPE
# notes: Activity-regulated cytoskeleton-associated protein (Arc), rat, full length, residues 113-119 replaced by alanines; expressed with an N-terminal His6-MBP fusion in pHMGWA; also called flArc dimeric mutant; dimeric full-length Arc; not shown: His6, N-terminal, cleaved; MBP, N-terminal, cleaved
# B3: anti-Arc nanobody H11 (VHH)
# VHH: EVQLLESGGGLVQAGDSLRLSCAASGRTFSAYAMGWFRQAPGKEREFVAAISWSGNSTYYADSVKGRFTISRDNAKNTVYLQMNSLKPEDTAIYYCAARKPMYRVDISKGQNYDYWGQGTQVTVSS
# notes: alpaca nanobody; 14.1 kDa as printed; provided by Nanotag Biotechnologies in the vector pNT1433 (His6-TEV-H11); CDR3 holds a PxY motif; source: E. coli BL21(DE3), purified (Ni-NTA, tag cleavage, reverse Ni-NTA, SEC); not shown: His6, N-terminal, cleaved
# B4: anti-Arc nanobody E5 (VHH)
# VHH: EVQLQESGGGLVQAGGSLRLSCAASGSIFSGNAMGWYRQAPGKQREVVAVISAGNSSNYVDSVKGRFTISRDNAKNTVYLQMNSLKPEDTAVYYCNVVKRGPQWGMEWGKGTLVTVSS
# notes: alpaca nanobody; 12.8 kDa as printed; provided by Nanotag Biotechnologies in the vector pNT1433 (His6-TEV-E5); CDR3 holds a PxW motif; source: E. coli BL21(DE3), purified (Ni-NTA, tag cleavage, reverse Ni-NTA, SEC); not shown: His6, N-terminal, cleaved
# How the values were obtained:
# [1] = biological target: T1, Arc N-lobe (Arc-NL, Arc 207-277); assay: ITC; 2 mM P1 (titrant) into 200 μM Arc-NL (titrate), TBS, 20 °C, three sequential titrations concatenated, 1:1 binding model, one replicate; conditions: both partners purified
# [2] = biological target: the molecule itself; assay: SEC-MALS + other: SEC-SAXS; rArcFL-7A alone and with E5, C11 or both; 20 mM Tris pH 7.5, 150 mM NaCl, 0.5 mM TCEP; 1:1.3 protein-to-nanobody ratio for SAXS
# [3] = biological target: T2, Arc N-lobe (Arc-NL, Arc 207-277) (human, UniProt Q7LC44); assay: ITC; displacement assay: 100 μM E5/H11 (titrant) into 10 μM Arc-NL saturated with 100 μM P1, TBS, 20 °C; apparent constants, one replicate; conditions: both partners purified
# T2 construct: Activity-regulated cytoskeleton-associated protein (Arc), N-lobe, residues 207-277; identical for human, rat and mouse Arc-NL; construct His6-MBP-TEV-NL in pETMBP_1a; 8.9 kDa as printed; also called human Arc N-lobe; source: E. coli BL21(DE3), purified (Ni-NTA, tag cleavage, reverse Ni-NTA, SEC); not shown: His6, N-terminal, cleaved; MBP, N-terminal, cleaved
# [4] = biological target: T2, Arc N-lobe (Arc-NL, Arc 207-277); assay: ITC; 15 μM E5/H11 (titrant) into 1.5 μM Arc-NL (titrate), TBS (20 mM Tris-HCl pH 7.5, 150 mM NaCl), 20 °C, 1:1 binding model, four replicates; conditions: both partners purified
# [5] = biological target: T3, full-length rat Arc with a poly-Ala mutation in residues 113-119 (rArcFL-7A) (rat, UniProt Q63053, poly-Ala mutation in residues 113-119); assay: SEC-MALS + other: SEC-SAXS; rArcFL-7A alone and with E5, C11 or both; 20 mM Tris pH 7.5, 150 mM NaCl, 0.5 mM TCEP; 1:1.3 protein-to-nanobody ratio for SAXS; conditions: both partners purified
# T3 construct: Activity-regulated cytoskeleton-associated protein (Arc), rat, full length, residues 113-119 replaced by alanines; expressed with an N-terminal His6-MBP fusion in pHMGWA; also called flArc dimeric mutant; dimeric full-length Arc; not shown: His6, N-terminal, cleaved; MBP, N-terminal, cleaved
Binder,dH-App (Arc-NL saturated with P1) [3] [kcal/mol],Kd [4] [nM],dH [4] [kcal/mol],further results
B1,–,–,–,Kd [1]: 5310 nM; dH [1]: -14.9 kcal/mol
B2,–,–,–,stoichiometry N [2]: 2
B3,-10.3,1.14,-23.5,–
B4,-12,0.99,-23.2,stoichiometry Arc:E5:C11 of the ternary complex [5]: 1 E5 per Arc chain (2 Arc : 2 E5 : 2 C11); stoichiometry N [5]: 1 E5 per Arc chain (2 E5 : 2 Arc)

# Source: PMC11057775, “Structural characterization of two nanobodies targeting the ligand-binding pocket of human Arc” (PLOS ONE, 2024)
